pEC50: −log10 of the molar value.
Target: SARS-CoV-2 Delta Spike antigen (SARS-CoV-2 Delta)
Assay: ELISA, Spike antigen coated on plate

| Substance | pEC50 |
| --- | --- |
| Anti-S1 antibody DZIF-10c | 8.16 |
| Anti-S1 antibody ImdevimAb | 11.00 |
